21 substances from patent US20180346600A1 can be followed below.

Holding throughout (assay): HEK293-F co-expression, Protein A purification, non-reducing SDS-PAGE densitometry
The target in assay [1] is scFv-FcCH3A, A107 (K370E/K409W) (human) [IgG part: P0DOX5].
Assay [2] concerns the target scFv-FcCH3A, A107w/oW-VT (K370E) (human) [IgG part: P0DOX5].
Assay [3] shares this target. The source holds these as a separate data set.
Assay [4] addresses scFv-FcCH3A, A109 (K370M/K409W) (human) [IgG part: P0DOX5].
Assay [5] concerns the target scFv-FcCH3A, A109w/oW-VT (K370M) (human) [IgG part: P0DOX5].
Assay [6] addresses scFv-FcCH3A, A146w/oW-VT (K370D) (human) [IgG part: P0DOX5].
For assay [7], the target named is scFv-FcCH3A, A205 (E357D/S364W/K370E) (human) [IgG part: P0DOX5].
The target of assay [8] is scFv-FcCH3A, A210 (E357A/S364Y/K370E) (human) [IgG part: P0DOX5].
Assay [9] addresses scFv-FcCH3A, A216 (E357G/S364W/K370E) (human) [IgG part: P0DOX5].
Assay [10] concerns the target scFv-FcCH3A, A241 (E357N/S364W/K370E) (human) [IgG part: P0DOX5].
The target in assay [11] is scFv-FcCH3A, B121 (D399E/K409W) (human) [IgG part: P0DOX5].
The target of assay [12] is scFv-FcCH3A, B135 (D399L/K409W) (human) [IgG part: P0DOX5].
For assay [13], the target named is scFv-FcCH3A, B168 (D399L/K409W) (human) [IgG part: P0DOX5].
Assay [14] has as its target scFv-FcCH3A, B168w/oW-VT (D399L) (human) [IgG part: P0DOX5].
For assay [15] the target is unchanged. The source holds these as a separate data set.
In assay [16] the target is scFv-FcCH3A, B212 (K392I/D399L) (human) [IgG part: P0DOX5].
Assay [17] has as its target scFv-FcCH3A, B215 (K392R/K409R/D399L) (human) [IgG part: P0DOX5].
Assay [18] deals with scFv-FcCH3A, B235 (K392C/D399L) (human) [IgG part: P0DOX5].
Assay [19] concerns the target scFv-FcCH3A, B239 (K392L/D399L) (human) [IgG part: P0DOX5].
Assay [20] has as its target scFv-FcCH3A, B240 (K392S/K409R/D399L) (human) [IgG part: P0DOX5].
Assay [21] deals with scFv-FcCH3A, B256 (K392N/D399L) (human) [IgG part: P0DOX5].
For assay [22], the target named is scFv-FcCH3A, EW-RVT (K360E/K409W) (human).
Assay [23] shares this target. The source holds these as a separate data set.
For assay [24], the target named is scFv-FcCH3A, W-VT (K409W) (human) [IgG part: P0DOX5].

Like-named read-outs stand apart in the source and are kept apart here.

“scFv-FcCH3A, A107 (K370E/K409W) (from UniProt P0DOX5 227-449) (Fc fusion)” gave a (scFv-Fc)2 (homodimer)(%) in assay [1] of 4.2%.

As to “scFv-FcCH3A, A107w/oW-VT (K370E) (from UniProt P0DOX5 227-449) (Fc fusion)”, the (scFv-Fc)2 (homodimer)(%) in [2] and in [3] was 21.3% in each case.

As for “scFv-FcCH3A, A109 (K370M/K409W) (from UniProt P0DOX5 227-449) (Fc fusion)”, in [4], the (scFv-Fc)2 (homodimer)(%) turned out to be 0.5%.

With “scFv-FcCH3A, A109w/oW-VT (K370M) (from UniProt P0DOX5 227-449) (Fc fusion)”, the (scFv-Fc)2 (homodimer)(%) in assay [5] was 5.6%.

Consider “scFv-FcCH3A, A146w/oW-VT (K370D) (from UniProt P0DOX5 227-449) (Fc fusion)”, for which the (scFv-Fc)2 (homodimer)(%) in assay [6] was 4.6%.

For “scFv-FcCH3A, A205 (E357D/S364W/K370E) (from UniProt P0DOX5 227-449) (Fc fusion)”, the (scFv-Fc)2 (homodimer)(%) in assay [7] was found to be 1%.

Take “scFv-FcCH3A, A210 (E357A/S364Y/K370E) (from UniProt P0DOX5 227-449) (Fc fusion)”: in assay [8], the (scFv-Fc)2 (homodimer)(%) is 9.9%.

Turning to “scFv-FcCH3A, A216 (E357G/S364W/K370E) (from UniProt P0DOX5 227-449) (Fc fusion)”, in assay [9], the (scFv-Fc)2 (homodimer)(%) is 1.5%.

“scFv-FcCH3A, A241 (E357N/S364W/K370E) (from UniProt P0DOX5 227-449) (Fc fusion)” yielded a (scFv-Fc)2 (homodimer)(%) in [10] of 15.7%.

Substance “scFv-FcCH3A, B121 (D399E/K409W) (from UniProt P0DOX5 227-449) (Fc fusion)” returned a (scFv-Fc)2 (homodimer)(%) in assay [11] of 1.5%.

“scFv-FcCH3A, B135 (D399L/K409W) (from UniProt P0DOX5 227-449) (Fc fusion)”: the (scFv-Fc)2 (homodimer)(%) in [12] amounted to 4.1%.

“scFv-FcCH3A, B168 (D399L/K409W) (from UniProt P0DOX5 227-449) (Fc fusion)”: the (scFv-Fc)2 (homodimer)(%) in assay [13] was 1.2%.

“scFv-FcCH3A, B168w/oW-VT (D399L) (from UniProt P0DOX5 227-449) (Fc fusion)”: the (scFv-Fc)2 (homodimer)(%) was found to be 1.6% in assay [14] and 1.5% in assay [15].

As for “scFv-FcCH3A, B212 (K392I/D399L) (from UniProt P0DOX5 227-449) (Fc fusion)”, in [16], the (scFv-Fc)2 (homodimer)(%) turned out to be 0.9%.

Turning to “scFv-FcCH3A, B215 (K392R/K409R/D399L) (from UniProt P0DOX5 227-449) (Fc fusion)”, the (scFv-Fc)2 (homodimer)(%) in [17] amounted to 1.9%.

In turn, “scFv-FcCH3A, B235 (K392C/D399L) (from UniProt P0DOX5 227-449) (Fc fusion)” showed a (scFv-Fc)2 (homodimer)(%) in [18] of 3.7%.

In assay [19], “scFv-FcCH3A, B239 (K392L/D399L) (from UniProt P0DOX5 227-449) (Fc fusion)” showed a (scFv-Fc)2 (homodimer)(%) of 3.4%.

“scFv-FcCH3A, B240 (K392S/K409R/D399L) (from UniProt P0DOX5 227-449) (Fc fusion)” returned a (scFv-Fc)2 (homodimer)(%) in assay [20] of 4.8%.

“scFv-FcCH3A, B256 (K392N/D399L) (from UniProt P0DOX5 227-449) (Fc fusion)” showed a (scFv-Fc)2 (homodimer)(%) in [21] of 3.9%.

For the substance “scFv-FcCH3A, EW-RVT (K360E/K409W) (Fc fusion)”, the (scFv-Fc)2 (homodimer)(%) in assay [22] and in assay [23] was 0.5% each time.

In [24], “scFv-FcCH3A, W-VT (K409W) (from UniProt P0DOX5 227-449) (Fc fusion)” came in with a (scFv-Fc)2 (homodimer)(%) of 1.4%.
